# According to patent US10774121B2, “Methods and compositions for treating neurodegenerative disorders and Alzheimer's Disease and improving normal memory” (The Regents of the University of California, priority 2006, dated 2020):
# B1: N-terminal domain of PS-2 fused to FLAG: fusion protein with FLAG attached at the N-terminus of the PS-2 N-terminal domain (protein)
# chain: MLTFMASDSEEEVCDERTSLMSAESPTPRSCQEGRQGPEDGENTAQWRSQENEEDGEEDPDRYVCSGVPGRPPGLEEELTLKYGAKH
# modifications: left off: small tags and cut ends
# notes: fusion protein with FLAG attached at the N-terminus of the PS-2 N-terminal domain
# Tested on: protein tyrosine kinase activity
# Experiment: Protein tyrosine kinase ELISA on extracts of β-APP-transfected ES double-null cells mixed with PS-1-transfected DAMI cells
# Format: cell-based
# Details: 25 μg protein added, 0-20 min after mixing
# Method: DAMI:ES cells: Equal numbers (0.5×10^6/ml) of β-APP 695 (Selkoe and Podlisny, 2002)-transfected ES double-null cells and PS-1 transfected DAMI cells were co-cultured at 37° C. for various times between 0-20 mins.
# At several times between 0 and 20 min after mixing, an aliquot of each cell mixture was rapidly centrifuged, the culture medium was removed, and the cell pellet was suspended in 200 μl of extraction buffer (50 mM Tris, pH 8.0/150 mM NaCl/0.5% Nonidet-P40) containing protease inhibitors (1 mM 4-(2-aminoethyl) benzene sulfonyl fluoride hydrochloride (AEBSF)/1 μg/ml antipain/0.1 μg/ml pepstatin A/0.1 μg/ml leupeptin) and the phosphatase inhibitor sodium orthovanadate (0.1 mM). The mixture was sonicated with three bursts of 20 sec duration and then centrifuged. These extract supernatants were then used for Western blot and ELISA analyses as described below.
# ELISAs Protein tyrosine kinase activity was measured by an Enzyme Linked Immunosorbent Assay (ELISA) using a tyrosine kinase assay kit (Upstate Biotechnology). A biotinylated substrate peptide containing tandem repeats of Poly (Glu4-Tyr) was incubated with supernatants of extracts of transfected cells mixed for different times ([…]) in the presence of non-radioactive ATP and a Mn^2+/Mg^2+ co-factor cocktail according to the manufacturer's protocols. […]
molecule,measurement,setting,value
B1,transient increase in protein tyrosine kinase activity after cell mixing,,very similar transient increases
same,transient increase in protein tyrosine kinase activity after cell mixing,listed as FLAG-PS-2 N-terminal domain fusion peptide,did not inhibit
